The target in the series is RR_1586 D50G (Clostridioides difficile R20291, UniProt A0A9R0BKD1 1-223, D50G). Kind of series: EMSA; 10 mM Mg2+; phosphoramidate; EMSA: 5 pmol DNA in 10 ul (500 nM), 10 mM Tris pH 8, 50 mM NaCl, 10 mM MgCl2, room temperature 10 min; 10% PAGE 0.5x TBE on ice, ethidium bromide. To be noted: protein: recombinant; tags: His6; chain copies: 2; blunt. Background: Mobility shift assays separate free from complexed probe on a gel.

B1: CDR20291_1583 site (dsDNA)
DNA 1: AGGAATTAAGGAGCAATTAAATGATG
DNA 2: CATCATTTAATTGCTCCTTAATTCCT
With B1, the binding result is “binds”.

The values above are taken from article PMC6222199, “Regulatory Targets of the Response Regulator RR_1586 from Clostridioides difficile Identified Using a Bacterial One-Hybrid Screen”.
